From patent US20170058005A1 (priority 2014, published 2017)
Where no end group is shown, it is not given here.

Tests used:
[1] = tested on: CD4^+ T cells of HLA class II transgenic mice; type: cell-based
DRB1*0301 (DR3) = DRB1*0301 (DR3) (Homo sapiens, UniProt P01903+P01911, A100K/A102G/A103R/A169T/F55Y/I96L/K41T/L162R/M171V/P40S/Q125H/Q178H/Q39Y/R42S/S66N/T106N/T262R/W38E/Y61H); type: binding
HLA-DR molecules = type: binding, human
DRB1*0401 (DR4) = DRB1*0401 (DR4) (Homo sapiens, UniProt P01903+P01911, A100K/A169T/F76Y/I96L/K127E/L162R/M171V/N62H/P40V/Q125Y/R42H/S133A/S149N/S66Y/V115G/V209L/W38E); type: binding
DRB1*1101 (DR11) = DRB1*1101 (DR11) (Homo sapiens, UniProt P01903+P01911, A100R/A169T/A87E/I96F/K41T/L162R/M171V/P40S/Q125H/Q178H/Q39Y/Q99D/R42S/S66Y/T262R/V115G/W38E); type: binding
DRB1*0701 (DR7) = DRB1*0701 (DR7) (Homo sapiens, UniProt P01903+P01911, A100R/A102G/A103Q/D57E/D86V/E43K/F76Y/K127E/L162R/M171V/P40G/Q125H/Q99D/R33Q/R42Y/R54Q/S133A/S66F/T210M/V115G/Y107V/Y59L/Y89S); type: binding
DRB1*1501 (DR15) = DRB1*1501 (DR15) (Homo sapiens, UniProt P01903+P01911); type: binding
DRB1*0101 (DR1) = DRB1*0101 (DR1) (Homo sapiens, UniProt P01903+P01911, A100R/D57E/F55L/F60I/F76Y/I96L/L162R/M171V/P40L/Q125E/R42F/V115G/Y59C); type: binding
DRB1*1301 (DR13) = DRB1*1301 (DR13) (Homo sapiens, UniProt P01903+P01911, A100E/A169T/K41T/L162R/M171V/P40S/Q125H/Q178H/Q39Y/Q99D/R42S/S66N/T262R/W38E/Y61H); type: binding

Sequence | HLA-restriction based on CD4 T cell response class II HLA transgenics after priming with LF [1] | Relative binding affinity of peptide to HLA-DR molecules, DR3 (DRB1*0301 (DR3)) | Binding across all HLA-DR alleles assayed (HLA-DR molecules) | Relative binding affinity of peptide to HLA-DR molecules, DR4 (DRB1*0401 (DR4)) | Relative binding affinity of peptide to HLA-DR molecules, DR11 (DRB1*1101 (DR11)) | Relative binding affinity of peptide to HLA-DR molecules, DR7 (DRB1*0701 (DR7)) | Relative binding affinity of peptide to HLA-DR molecules, DR15 (DRB1*1501 (DR15)) | Relative binding affinity of peptide to HLA-DR molecules, DR1 (DRB1*0101 (DR1)) | Relative binding affinity of peptide to HLA-DR molecules, DR13 (DRB1*1301 (DR13)) | CD4 T cell response in LF immunized HLA transgenics [1] | IC50 (DRB1*1301 (DR13); read-out: IC50 of reference peptide) [nM]
AKAFAYYIEPQHRDVLQLYA | DR1 | 39 | strong to moderate binding across all seven HLA-DR alleles | 51 | 4 | 97 | 8 | 115 | 9 | – | –
AVDDYAGYLLDKNQSDLVTN | DR4, DR15 | 42 | – | 10 | 55 | 1,789 | 0.1 | 1,380 | >2 733 | HLA-DR4 and HLA-DR15 restricted | –
DTGGLIDSPSINLDVRKQYK | DR15 | 0.3 | – | 935 | 179 | 15 | 130 | 866 | 8 | – | –
EIMKHIVKIEVKGEEAVKKE | DQ8 | 50 | – | 567 | 4 | 249 | 329 | 243 | 19 | – | –
IGLEIKDVQIIKQSEKEYIRIDAKVVP | DR1, DR15 | 2 | – | 919 | 73 | 7 | 1 | 1 | 24 | – | –
KELLNRIQVDSSNPLSEKEK | DQ8 | 1 | – | 0 | 274 | 36 | 1 | 146 | 1,714 | – | –
KLITFNVHNRYASNIVESAY | DR1, DR4 | 0.4 | – | 3 | 7 | 72 | 5 | 35 | 0.5 | – | –
LLFTNQLKEHPTDFSVEFLE | DQ8 | >76 | – | 6 | 148 | 51 | 193 | 909 | >172 | – | –
NEQEINLSLEELKDQRMLSR [LF 281-300] | – | – | – | – | – | – | – | – | – | did not induce a response in any of the HLA transgenics | –
PEAFNYMDKFNEQEINLSLE | DQ8 | >76 | – | 2 | 2 | 42 | 463 | 2156 | >172 | – | –
PKSKIDTKIQEAQLNINQEW [LF584-603] | – | – | – | – | – | – | – | – | – | did not induce any response in any of the HLA transgenics | –
RNKTQEEHLKEIMKHIVKIE | DQ8 | >76 | – | >1 539 | 2 | 77 | >2 184 | 4810 | 8 | – | –
SEGFIHEFGHAVDDYAGYLL | DR15 | >1 000 | – | 46 | 849 | 131 | 0.04 | 5 | >2 733 | immunodominant epitopes in HLA-DR15 transgenics | –
SKKFIDIFKEEGSNLTSYGR | DR4 | 474 | – | 0.2 | 0.4 | 302 | 1 | 4 | 1,225 | HLA-DR4 and HLA-DR15 restricted | –
TERVRLVTRHIYNREE [B1 21-36, reference compound] | – | – | – | – | – | – | – | – | – | – | 37
VLVIQSSEDYVENTEKALNV | DR1 | 82 | – | 29 | 168 | 66 | 958 | 1702 | >172 | – | –
YGKDALLHEHYVYAKEGYEP | DQ8 | >76 | – | 168 | 9 | 441 | 4000 | 199 | 6 | – | –
YLVDGNGRFVFTDITLPNIA | DR4 | 0.3 | – | 0.3 | 45 | 19 | 2 | 123 | >2 733 | elicited a T cell response in a single HLA transgenic strain | –
YVYAKEGYEPVLVIQSSEDY | DR1, DQ8 | >238 | – | 555 | 14 | 1182 | >262 | 771 | 3 | – | –
YYEIGKILSRDILSKINQPY | DQ8 | 3 | – | 19 | 0.4 | 4 | 43 | 69 | 5 | – | –
